Measured values from patent US20130101571A9, “ANTIDOTES FOR NITROBENZODIAZEPINES” (Academia Sinica, priority 2011, published 2013).
Where a chain is given by its changes, count along the chain named. Numbers in names are those of the source. Entries after “also recorded” stand apart in the source; their conditions may differ.

Assays:
[1] = system: nfsb-wt and nfsb-n71s/f124w-transformed E. coli BL21(DE3); assay: Disk assay for FZ sensitivity (disk diffusion, zones of inhibition); format: cell-based; conditions: E. coli expressing wild-type enzyme or N71S/F124W mutant; dosage up to 400 μg; 24 hrs
Protocol: LB plates were uniformly streaked with 0.1 ml of bacterial cell suspensions having an OD600 value of 0.8. Sterile 7 mm filter paper disks saturated with 7 μl of each chemical, including FZ alone, metronidazole (MTZ) alone, and a combination of FZ and MTZ at a ratio of 1/1 by weight, in the amounts indicated in FIG. 4 were placed on the plates. The cells were incubated for 24 hrs before the zones of inhibition were measured.^22

FZ-induced hypnosis = assay: Sleep-time (anti-FZ hypnosis) study in mice; format: in vivo, Balb/c mice; conditions: for effect on sleep-time in treated mice (in words): FZ-treated Balb/c mice, FIG. 5A
Protocol: Male Balb/c mice were purchased from the Animal Center, College of Medicine, National Taiwan University (NTUMC), and were housed in the air-conditioned animal quarters on a 12-h light/dark cycle (temperature 23-25° C.). The animals had free access to water and rodent laboratory chow (Purina Mills Inc.) with the experimental procedures being approved by the Institutional Care and Use Committee at NTUMC.
A sleep-time study in mice was started at the age of seven weeks (body weight ranged from 17.6-19.2 g) following experimental procedures modified from previous studies.^23 Briefly, mice were divided into three groups (at least 4 mice per group) and injected i.p. with 2 mg/kg body weight of FZ from the stock solution (0.4 mg/ml in corn oil). One minute later, mice in Group I, Group II, and Group III were injected i.v. with a vehicle control, 1 mg/ml of wild-type NfsB enzyme (dissolved in 100 mM potassium phosphate buffer, pH 7.4), and 1 mg/ml of the N71S/F124W mutant enzymes (also dissolved in 100 mM potassium phosphate buffer, pH 7.4), respectively, via the tail lateral veins of the FZ-treated mice. The ability of the treated mice to stand on a stainless steel laboratory holder was examined at various time points. A mouse was characterized as losing the reflex ability if it could not stand on the holder for 10 seconds; A mouse was defined as having regained the reflex ability if it could stand on the holder for at least 10 seconds. The time between losing and regaining the reflex ability was defined as sleep-time and recorded for each group.

[2] = 7AFZ production from FZ by purified NfsB proteins (HPLC); format: biochemical; conditions: for 7AFZ formation: FZ 64 μM, purified NfsB protein 10 μg, NADPH 2 mM, 2 h at 37° C., mean±S.D. from three incubations; for production of 7AFZ compared to the wild-type enzyme (in words): anaerobic conditions, FIG. 2B
Protocol: Production of 7AFZ was performed under both aerobic or anaerobic conditions. For anaerobic incubation, nitrogen was inlet into an anaerobic incubator (Biotrace). The reaction mixture consisted of FZ (64 μM), purified NfsB proteins (10 μg), MgCl2 (3.3 mM), and NADPH (2 mM) in 100 mM potassium phosphate buffer (pH 7.4). After incubation for 2 h at 37° C., the reaction was terminated by the addition of a methanol solution (200 μl) containing bromazepam (1 μg/mL), which acted as an internal control. The reaction products were extracted via sonication and analyzed by HPLC at 240 nm with a procedure described previously.^13 The detection limit for 7AFZ or FZ was less than 3-5 ng with 83-86% of recovery.

[3] = NfsB in mice serum by direct competitive ELISA; conditions: 24 hours after the injection
Protocol: The ELISA assay used in this study was a modified version of a previously described method.^24 Briefly, 96-well microtitre plates were coated with 100 μL of anti-NfsB antibody solution (4 μg/ml in PBS; 13) overnight at 4° C., then washed with PBS containing 0.05% Tween 20 (PBST) in triplicate, then incubated with a blocking buffer containing PBST and 1% BSA. NfsB standards (containing 40 μl sera of untreated mice), or samples (containing 40 μl sera from treated mice collected 1, 3, 6, 12, and 24 hours after the treatment) were placed in the above-noted blocking buffer (60 μL) and added to the wells, which were incubated overnight at 4° C. Enzyme tracer solution (100 μl 6×His mAb/HRP, 1:10,000 in PBS) were added to the wells and incubated at 37° C. for 30 min Subsequently, the wells were washed and TMB substrate solution was added (100 μl). After incubation for 15 min at room temperature, a sulfuric acid solution (2N, 50 μl) was added to stop color development. The absorbance was measured at 450 nm. […] NfsB concentration in the sera samples of the treated groups were calculated based on the standard curve.

[4] = Kinetic study monitoring the rate of FZ disappearance (standard nitroreductase assay of E. coli NfsB); format: biochemical; conditions: aerobic; for Km / Vmax: FZ 4-256 μM, linear plot; for Km / Vmax / Specific activity / Specific activity relative to wild type: NADPH 2 mM; for Specific activity / Specific activity relative to wild type: against FZ
Protocol: A kinetic study was carried out by monitoring the rate of FZ disappearance. FZ (4-256 μM) was incubated with purified NfsB proteins (10 μg) under the aerobic conditions described above for 2 h in the presence of NADPH at a fixed concentration of 2 mM.
Data were analyzed and calculated via linear plot (13). The amounts of FZ were obtained via the standard nitroreductase assay of E. coli NfsB in the presence of a fixed concentration of cofactor NADPH (2 mM).

Molecule: CN1C(=O)CN=C(c2ccccc2F)c2cc([N+](=O)[O-])ccc21 [FZ, flunitrazepam]
- inhibitory effect (zones of inhibition) on E. coli cells [1]: neither exhibited toxicity nor increased MTZ toxicity; also recorded: did not show any inhibitory effect

Molecule: Cc1ncc([N+](=O)[O-])n1CCO [Metronidazole, metronidazole]
- inhibitory effect (zones of inhibition) on E. coli cells [1]: dose-dependent

B1: Wild type: Wild-type E. coli type I nitroreductase NfsB (NP-415110; SEQ ID NO:1), His-tagged recombinant protein (protein)
chain: MDIISVALKRHSTKAFDASKKLTPEQAEQIKTLLQYSPSSTNSQPWHFIVASTEEGKARVAKSAAGNYVFNERKMLDASHVVVFCAKTAMDDVWLKLVVDQEDADGRFATPEAKAANDKGRKFFADMHRKDLHDDAEWMAKQVYLNVGNFLLGVAALGLDAVPIEGFDAAILDAEFGLKEKGYTSLVVVPVGHHSVEDFNATLPKSRLPQNITLTEV
modifications: His tag; E. coli
- effect on sleep-time in treated mice (in words) (FZ-induced hypnosis): significantly reduced the sleep-time
- 7AFZ formation ([2]; aerobic): 29.52 ± 6.6 ng
- 7AFZ formation ([2]; anaerobic): 51.85 ± 2.19 ng
- enzyme remaining in the serum [3]: 30%
- Km [4]: 71.4 µM
- Vmax [4]: 1.89 µM/min
- Specific activity [4]: 82.9 nmol/min/mg protein
- Specific activity relative to wild type [4]: 1.0 fold

B2: N71S (protein)
chain: B1 chain with N71S
- 7AFZ formation relative to wild-type enzyme ([2]; anaerobic): 2.4 fold
- production of 7AFZ compared to the wild-type enzyme (in words) [2]: significantly increased
- 7AFZ formation ([2]; anaerobic): 126 ± 2.06 ng

B3: T41L (protein)
chain: B1 chain with T41L
- production of 7AFZ compared to the wild-type enzyme (in words) [2]: significantly increased

B4: Y68G (protein)
chain: B1 chain with Y68G
- production of 7AFZ compared to the wild-type enzyme (in words) [2]: significantly increased

B5: F70H (protein)
chain: B1 chain with F70H
- production of 7AFZ compared to the wild-type enzyme (in words) [2]: higher activity

B6: S40G (protein)
chain: B1 chain with S40G
- production of 7AFZ compared to the wild-type enzyme (in words) [2]: higher activity

B7: F70Y (protein)
chain: B1 chain with F70Y
- production of 7AFZ compared to the wild-type enzyme (in words) [2]: higher activity

B8: N71S/F124W: Double mutant N71S/F124W of E. coli type I nitroreductase NfsB (protein)
chain: B1 chain with N71S, F124W
- effect on sleep-time in treated mice (in words) (FZ-induced hypnosis): significantly reduced the sleep-time
- decrease of sleeping time compared to the vehicle group (FZ-induced hypnosis; FZ-treated mice): 50%
- sleeping time (FZ-induced hypnosis; FZ-treated mice, enzyme 1 mg/ml i.v. one minute after FZ): 138 ± 22 min
- 7AFZ formation relative to wild-type enzyme ([2]; aerobic): 11.77 fold
- 7AFZ formation ([2]; aerobic): 347.56 ± 16.59 ng
- 7AFZ formation relative to wild-type enzyme ([2]; anaerobic): 5.6 fold
- 7AFZ formation ([2]; anaerobic): 290.52 ± 18.38 ng
- Km [4]: 111 µM
- Vmax [4]: 3.13 µM/min
- Vmax relative to wild-type enzyme [4]: 1.7 fold
- Specific activity [4]: 195.5 nmol/min/mg protein
- Specific activity relative to wild type [4]: 2.4 fold

B9: F124Y (protein)
chain: B1 chain with F124Y
- production of 7AFZ compared to the wild-type enzyme (in words) [2]: higher activity

B10: F124W (protein)
chain: B1 chain with F124W
- 7AFZ formation relative to wild-type enzyme ([2]; anaerobic): 2.7 fold
- production of 7AFZ compared to the wild-type enzyme (in words) [2]: significantly increased
- 7AFZ formation ([2]; anaerobic): 141.88 ± 5.28 ng

B11: F124H (protein)
chain: B1 chain with F124H
- production of 7AFZ compared to the wild-type enzyme (in words) [2]: significantly increased
